Results as given in US20220072120A1 (University of Washington, published 2022).

Biological target: A/Hong_Kong/4801/2014 (H3N2) HA 1-676 Y98F GG lkr dn5B.SA (influenza A virus A/Hong_Kong/4801/2014 …)
Assay: in vitro co-assembly; SEC, SDS-PAGE of elution peaks, negative-stain EM

B1: I53-dn5 A (designed binder)
chain: MGKYDGSKLRIGILHARWNAEIILALVLGALKRLQEFGVKRENIIIETVPGSFELPYGSKLFVEKQKRLGKPLDAIIPIGVLIKGSTMHFEYICDSTTHQLMKLNFELGIPVIFGVLTCLTDEQAEARAGLIEGKMHNHGEDWGAAAVEMATKFN
binding result: binds
